B1: sNogoR310: soluble Nogo receptor-1 polypeptide, residues 26-310 (human) or 27-310 (rat); mouse form expressed in transgenic mice (protein)
chain: CPGACVCYNEPKVTTSRPQQGLQAVPAGIPASSQRIFLHGNRISYVPAASFQSCRNLTILWLHSNALAGIDAAAFTGLTLLEQLDLSDNAQLRVVDPTTFRGLGHLHTLHLDRCGLQELGPGLFRGLAALQYLYLQDNNLQALPDNTFRDLGNLTHLFLHGNRIPSVPEHAFRGLHSLDRLLLHQNHVARVHPHAFRDLGRLMTLYLFANNLSMLPAEVLVPLRSLQYLRLNDNPWVCDCRARPLWAWLQKFRGSSSGVPSNLPQRLAGRDLKRLATSDLEGCA
B2: sNogoR310-Fc: fusion protein comprising amino acids 26-310 of rat Nogo receptor-1 and a rat Fc fragment (protein)
chain: PCPGACVCYNEPKVTTSRPQQGLQAVPAGIPASSQRIFLHGNRISYVPAASFQSCRNLTILWLHSNALAGIDAAAFTGLTLLEQLDLSDNAQLRVVDPTTFRGLGHLHTLHLDRCGLQELGPGLFRGLAALQYLYLQDNNLQALPDNTFRDLGNLTHLFLHGNRIPSVPEHAFRGLHSLDRLLLHQNHVARVHPHAFRDLGRLMTLYLFANNLSMLPAEVLVPLRSLQYLRLNDNPWVCDCRARPLWAWLQKFRGSSSGVPSNLPQRLAGRDLKRLATSDLEGCA
modifications: left off: a dimerising Fc or GST
notes: fusion protein comprising amino acids 26-310 of rat Nogo receptor-1 and a rat Fc fragment

How the values were obtained:
Nogo receptor-1 = test: Blocking of ligand binding to Nogo receptor-1 by soluble receptors
DRG neurons = test: Neurite outgrowth assay, myelin mixed with test protein (Example 10); assay type: cell-based; details: P3-4 rat DRG; spotted mixed with CNS myelin
Description: Lab-Tek® culture slides (4 wells) were coated with 0.1 mg/ml poly-D-lysine (Sigma®). CNS myelin alone or mixed with sNogoR310, sNogoR310-Fc fusion protein, mAb 5B10 or control PBS were separately spotted as 3 μl drops. Fluorescent microspheres (Polysciences) were added to the myelin/PBS to allow later identification of the drops (Grandpre et al, Nature 403, 2000). Lab-Tek® slides were then rinsed and coated with 10 μg/ml laminin (Gibco™).
Dorsal root ganglions (DRG's) from P3-4 Sprague Dawley rat pups were dissociated with 1 mg/ml collagenase type 1 (Worthington), triturated with fire-polished Pasteur pipettes pre-plated to enrich in neuronal cells and finally plated at 23,000 cells/well on the pre-coated Labtek culture slides. The culture medium was F12 containing 5% heat inactivated donor horse serum, 5% heat inactivated fetal bovine serum and 50 ng/ml MNGF and incubated at 37° C. and 5% CO2 for 6 hours.
Slides were fixed for 20 minutes with 4% paraformaldehyde containing 20% sucrose and stained for the neuronal marker anti beta-III-tubulin (Covance TUJ1) diluted 1:500. As secondary antibody anti-mouse Alexa Fluor® 594 (Molecular Probes) was diluted 1:300 and slides were coverslipped with Gel/Mount™ (Biømeda™). 5× digital images were acquired with OpenLab™ software and analyzed by using the MetaMorph® software for quantification of neurite outgrowth.

chick neurons = test: Neurite outgrowth assay using chick neurons; assay type: cell-based
[1] = tested on: mouse spinal cord dorsal over-hemisection; test: Dorsal over-hemisection in gfap::sNogoR310 transgenic mice; assay type: in vivo
Excerpt: (§1) The Basso-Beattie-Bresnahan (BBB) locomotor rating scale (Basso et al., 1996, Neurotrauma 13, 343-359), the inclined plane test and the inclined grid walking test (Li and Strittmatter, 2003, J Neurosci. 2003, 23, 4219-27) were monitored in rats and mice after injury. For the inclined plane test, we measured the maximal angle to which a 50 cm×60 cm board could be angled for 5 sec without the mouse sliding off. For inclined grid walking, the mice were trained to climb a wire grid (35 cm long with 2.54 cm squares) at a slope of 45 degrees. The number of instances in which the hindpaw dropped below the grid plane was scored for each excursion from bottom to top. For the rat behavioral testing, BBB locomotor scale, grid walking and footprint analysis were performed. For grid walking, the rats were trained to walk on a wire grid (70 cm long with 2.54 cm squares), and the number of instances in which the hindpaw dropped below the grid plane was counted. For footprint analysis, the walking patterns of rat hindpaws were recorded with ink during a continuous locomotion across a 90 cm runway, and stride length on each side and stride width were calculated (Metz et al., 2000, Brain Res., 883, 165-177). All of these behavioral tests were performed by at least two individuals. Throughout the surgery, behavioral testing and histologic analysis, researchers were blind to the identity of the compound in the minipump.
We cloned the mouse sNogoR310 cDNA (corresponding to amino acids 1-310 of the Nogo receptor-1) into the NotI site of the C-3123 vector. In this vector, sNogoR310 expression is under the control of the glial fibrillary acidic protein (gfap) gene regulatory elements, which allow high level expression with enhanced secretion from reactive astrocytes at site of injury. We digested the resulting vector sequentially with AatII and SfiI and isolated the gfap::sNogoR310 construct on a 3.4 kb fragment. We microinjected this fragment into embryos to generate transgenic mice. We verified by PCR that the transgene had integrated and identified five founder lines. We crossed heterozygous males of the two founder lines with the highest expression levels to female C57BL/6J mice. We confirmed that the GFAP-positive cells express and secrete sNogoR310 in heterozygous transgenic mice by Western blot analysis using antibody raised against Nogo receptor-1.
We deeply anesthetized adult female heterozygous transgenic or littermate WT mice (10-16 weeks of age) and performed a complete laminectomy, fully exposing the dorsal part of spinal cord at T6 and T7 levels. We performed a dorsal over-hemisection at T6 with a 30-gauge needle and a pair of microscissors to completely sever the dorsal and dorsolateral corticospinal tracts (CSTs). We passed a marked needle across the dorsal part of the spinal cord several times to assure that the lesion was at a depth of 1.0 mm. We sutured the muscle layers over the laminectomies and closed the skin on the back with surgical staples. To trace the corticospinal tracts, we made a burr hole overlying cerebral cortex on the right side into the skull 14 days after spinal cord injury. We applied the tracer BDA (MW 10,000, 10% in PBS) (Molecular Probes, Eugene, Oreg.) to 4 injection sites at a depth of 0.7 mm from the cortical surface. Four weeks after injury, the mice were perfused transcardially with PBS, followed by 4% paraformaldehyde.
We investigated the integrity of descending corticospinal tracts (CST) by injecting anterograde tracer biotin dextran amine (BDA) into the right motor cortex as described in Li and Strittmatter, 2003, J. Neurosci., 23, 4219-27. In littermate WT mice, the prominent dorsal CST (dCST) is tightly bundled rostral to the lesion, and a few dorsolateral CST fibers are visible ipsilaterally. A small number of BDA-labeled short collateral sprouts project into gray matter, particularly in the ventral cord, but the sprouting is largely confined to the side of the cord contralateral to the tracer injection. […]

[2] = tested on: rat spinal cord dorsal hemisection; test: Intrathecal sNogoR310-Fc in rats with mid-thoracic dorsal hemisection; assay type: in vivo
Excerpt: as §1
We isolated spinal cord 4 mm rostral to and 4 mm caudal to the lesion site (8 mm long in total) from transgenic mice and embedded it in a glutaraldehyde-polymerized albumin matrix, and cut parasagittally on a vibratome (30 μm thick). We collected transverse sections (50 μm) from the spinal cord 5-7 mm rostral to and 5-7 mm caudal, to the injury site. For sNogoR310-Fc injection experiments in rats, the spinal cord extending from 10 mm rostral to 10 mm caudal from the lesion site was cut parasaggitally (50 μm) on a vibrating microtome. Transverse sections were collected from the spinal cord 11-16 mm rostral to and 11-16 mm caudal to the injury site. We incubated the sections with avidin-biotin-peroxidase complex and visualized the BDA tracer by nickel-enhanced diaminobenzidine HRP reaction (Grandpre, 2002, Nature, 417, 547-551). We processed some sections for serotonin immunohistochemistry (anti-5-HT antibody) by indirect immunofluoresence. To visualize the lesion area, we double-stained some sections with antibodies directed against GFAP (Sigma®, St. Louis, Mo.). We mounted, dehydrated and covered the sections with mounting medium.
We fused the ligand binding domain (27-310) of rat Nogo receptor-1 to the rat IgG1 Fc domain to promote stability and purification. We purified protein from stably transfected CHO cells. […]

Nogo-66, MAG and myelin = test: Blocking of Nogo-66, MAG and myelin action in vitro

Molecule | blocking of binding of NogoA, NogoB, NogoC, MAG and OM-gp to Nogo receptor-1 (Nogo receptor-1) | protection from myelin-mediated inhibition of neurite outgrowth (DRG neurons) | protection in similar assay using chick neurons (chick neurons) | grid climbing ([1]; 2-6 weeks post-injury) | BDA-labeled regenerating fibers in the rostral-caudal axis ([1]; any level 1-4 mm caudal to the lesion, each transgenic mouse) | sustainable inclined plane angle ([1]; days 7-28 after injury vs control) | BBB scores ([1]; lines Tg08 and Tg01 vs control, 7-28 days) | fibers on the opposite side of the spinal cord (ipsilateral to tracer injection) ([1]; rostral to dorsal hemisection) | sprouting density of collateral sprouts (micro densitometric measurement) ([1]; rostral to lesion, transgenic vs WT) | CST sprouting ([1]; secreted in transgenic mice) | serotonin fibers in ventral horn of caudal spinal cord ([1]; transgenic vs WT) | animals with consistent forelimb-hindlimb coordination and parallel paw position ([2]; 4 weeks after injury) | total collateral length of each sprout versus NEP 1-40-treated animals ([2]; distal spinal cord) | serotonin fibers versus control group ([2]; sections 11-15 mm below the lesion) | rubrospinal tract fibers distal to SCI ([2]; transverse sections 11-15 mm distal) | blocking of Nogo-66, MAG and myelin action (Nogo-66, MAG and myelin)
B1 | block the binding | protected | protective | progressive improvement | 5-15 | significantly greater | significantly higher | 4-12 sprouts per transverse section | approximately a tenfold increase | induces CST sprouting | much greater number | – | – | – | – | –
B2 | – | protected | – | – | – | – | – | – | – | – | – | all 9 | twice as great | twice as numerous | many BDA-labeled RST fibers | blocks
